Experimental data: US20240309103A1 (Regeneron, published 2024)

Assays:
[1] = biological target: T1, mouse NPR1 extracellular domain expressed with a C-terminal mouse IgG2a (mNPR1-mFc) (mouse); assay: SPR, Tables 21 to 26
T1 chain: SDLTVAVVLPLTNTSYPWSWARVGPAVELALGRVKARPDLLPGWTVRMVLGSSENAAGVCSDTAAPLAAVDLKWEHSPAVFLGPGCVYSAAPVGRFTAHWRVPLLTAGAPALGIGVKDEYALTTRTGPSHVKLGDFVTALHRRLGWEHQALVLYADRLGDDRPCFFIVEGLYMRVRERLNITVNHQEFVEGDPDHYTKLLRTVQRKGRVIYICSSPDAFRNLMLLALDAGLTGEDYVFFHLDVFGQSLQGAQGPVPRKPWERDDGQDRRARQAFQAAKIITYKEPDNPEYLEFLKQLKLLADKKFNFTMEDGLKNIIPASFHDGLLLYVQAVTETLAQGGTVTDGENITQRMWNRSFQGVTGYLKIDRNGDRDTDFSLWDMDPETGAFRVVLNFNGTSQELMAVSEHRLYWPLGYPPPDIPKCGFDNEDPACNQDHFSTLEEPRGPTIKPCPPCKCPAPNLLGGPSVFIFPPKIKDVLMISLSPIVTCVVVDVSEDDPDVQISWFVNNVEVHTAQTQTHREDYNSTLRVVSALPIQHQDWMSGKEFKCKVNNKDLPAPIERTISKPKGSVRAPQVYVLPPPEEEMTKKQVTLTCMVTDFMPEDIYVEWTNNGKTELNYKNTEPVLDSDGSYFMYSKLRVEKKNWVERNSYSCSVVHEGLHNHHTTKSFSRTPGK
Procedure: (§1) Equilibrium dissociation constant (KD) for different NPR1 reagents binding to purified anti-NPR1 monoclonal antibodies (mAbs) were determined using a real-time surface plasmon resonance based Biacore 4000 biosensor. All binding studies were performed in 10 mM HEPES, 150 mM NaCl, 3 mM EDTA, and 0.05% v/v Surfactant Tween-20, pH 7.4 (HBS-ET) running buffer at 25° C. and 37° C. The Biacore CM5 sensor chip surface was first derivatized by amine coupling with either mouse anti-human Fc specific mAb (GE Healthcare, #BR100839) or goat anti-human Fcy specific polyclonal antibody (Jackson ImmunoResearch Laboratories, #BR-1008-39) to capture anti-NPR1 mAbs.

[2] = biological target: T2, monkey NPR1 extracellular domain expressed with a C-terminal myc-myc-hexahistidine (mfNPR1-MMH) (monkey, UniProt P16066 33-473 (human entry)); assay: SPR, mAb captured, 25 C
T2 construct: also called monomeric monkey NPR1
T2 chain: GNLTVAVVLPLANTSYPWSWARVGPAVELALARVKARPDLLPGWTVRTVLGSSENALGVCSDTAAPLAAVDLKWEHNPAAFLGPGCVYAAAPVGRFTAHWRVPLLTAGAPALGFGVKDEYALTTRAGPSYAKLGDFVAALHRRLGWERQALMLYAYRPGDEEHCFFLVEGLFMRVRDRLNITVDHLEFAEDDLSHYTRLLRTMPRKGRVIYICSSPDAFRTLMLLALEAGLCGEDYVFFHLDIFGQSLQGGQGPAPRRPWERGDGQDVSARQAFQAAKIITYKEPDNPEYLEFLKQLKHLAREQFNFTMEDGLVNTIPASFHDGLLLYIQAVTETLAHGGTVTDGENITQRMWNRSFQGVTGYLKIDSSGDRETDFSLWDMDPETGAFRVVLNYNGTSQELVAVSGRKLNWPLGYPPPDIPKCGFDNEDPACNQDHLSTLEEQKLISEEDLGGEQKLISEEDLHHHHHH
Procedure: as §1

[3] = biological target: T3, mouse NPR1 extracellular domain expressed with a C-terminal myc-myc-hexahistidine (mNPR1-MMH) (mouse, UniProt P18293 29-469); assay: SPR, mAb captured, 25 C
Procedure: as §1

[4] = biological target: T4, human NPR1 extracellular domain expressed with a C-terminal mouse IgG2a (hNPR1-mFc) (human); assay: SPR, mAb captured, 25 C
T4 construct: also called hNPR1-Fc; human NPR1 dimer
T4 chain: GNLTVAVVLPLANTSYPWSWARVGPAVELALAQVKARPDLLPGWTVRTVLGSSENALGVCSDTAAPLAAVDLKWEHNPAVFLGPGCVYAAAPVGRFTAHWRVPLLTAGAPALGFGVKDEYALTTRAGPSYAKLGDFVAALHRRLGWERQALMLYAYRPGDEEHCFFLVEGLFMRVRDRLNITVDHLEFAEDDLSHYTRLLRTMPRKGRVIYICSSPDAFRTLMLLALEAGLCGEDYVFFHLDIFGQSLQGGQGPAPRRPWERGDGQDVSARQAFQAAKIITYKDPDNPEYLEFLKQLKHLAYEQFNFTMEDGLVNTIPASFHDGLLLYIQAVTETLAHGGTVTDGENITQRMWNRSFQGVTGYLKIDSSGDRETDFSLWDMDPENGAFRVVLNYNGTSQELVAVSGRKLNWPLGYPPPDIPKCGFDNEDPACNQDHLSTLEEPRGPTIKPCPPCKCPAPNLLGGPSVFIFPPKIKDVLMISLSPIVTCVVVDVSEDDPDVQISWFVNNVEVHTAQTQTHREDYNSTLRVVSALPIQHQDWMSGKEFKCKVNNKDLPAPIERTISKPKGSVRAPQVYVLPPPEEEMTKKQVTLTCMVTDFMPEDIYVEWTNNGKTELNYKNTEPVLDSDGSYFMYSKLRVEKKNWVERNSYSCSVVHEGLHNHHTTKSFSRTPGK
Procedure: as §1

[5] = biological target: T2, monkey NPR1 extracellular domain …; assay: SPR, mAb captured, 37 C
Procedure: as §1

[6] = biological target: T3, mouse NPR1 extracellular domain …; assay: SPR, mAb captured, 37 C
Procedure: as §1

[7] = biological target: T4, human NPR1 extracellular domain …; assay: SPR, mAb captured, 37 C
Procedure: as §1

B1: mAb25545 (antibody, V domains shown)
VH: QVQLVESGGGLVKPGGSLRLSCAASGFTFSDYHLSWIRQAPGKGLEWVSYIRSSGRTIDYAASVKGRFTISRDNAKNSLYLQMNSLRVEDTAVYYCARENWIVLKVYAGIVGAPLDQWGQGTLVTVSS
VL: not shown
binding result [1]: no binding
100 nM Ag Bound (RU) [2]: 4 RU
100 nM Ag Bound (RU) [3]: 0 RU
binding result [3]: no binding (tested: 100 nM)
100 nM Ag Bound (RU) [4]: 7 RU
100 nM Ag Bound (RU) [5]: 10 RU
100 nM Ag Bound (RU) [6]: 1 RU
100 nM Ag Bound (RU) [7]: 15 RU
